In patent publication US20240101668A1 (WUGEN, published 2024):
Changes are numbered by the printed parent chain.

T1: huCLL1-K244-Avi-Tev-His (human, UniProt Q5QGZ9 65-265)
T1 construct: extracellular domain
T1 sequence (looked up): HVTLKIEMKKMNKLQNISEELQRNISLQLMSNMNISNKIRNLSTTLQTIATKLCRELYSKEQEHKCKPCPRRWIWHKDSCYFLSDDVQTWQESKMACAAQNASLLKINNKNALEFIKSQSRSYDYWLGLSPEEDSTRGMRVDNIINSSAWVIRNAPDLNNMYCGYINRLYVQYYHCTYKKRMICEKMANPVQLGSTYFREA

T2: huCLL1-Q244-Avi-Tev-His (human, UniProt Q5QGZ9 65-265)
T2 construct: extracellular domain; also called CLL-1 K244Q
T2 sequence (looked up): T1 sequence (looked up) with K180Q

B1: Polypeptide No. 89 (scFv, V domains shown)
VH: QVQLVQSGAEVKKPGASVKVSCKASGYTFTNYYMHWVRQAPGQGLEWMGWINPNSGDTNYEQKFQGRVTMTRDTSTSTVYMELSSLRSEDTAVYYCARDDRIQLWVPLVFWGQGTLVTVSS
VL: DIQMTQSPSSLSASVGDRVTITCRASQGISNYLAWYQQKPGKAPKLLIYSASNLQSGVPSRFSGSGSGTDFTLTISSLQPEDFATYYCQQSFSTPFTFGQGTKLEIKR
notes: scFv
B2: Polypeptide No. 90 (scFv, V domains shown)
VH: EVQLLESGGGLVQPGGSLRLSCAASGFTFSNSDMNWVRQAPGKGLEWVSYISGTGSTIYYADSVKGRFTISRDNSKNTLYLQMNSLRAEDTAVYYCAKDYDSSYGSGYYGMDVWGQGTTVTVSS
VL: B1 VL with G28S, S30Y, A34N, S50A, S91Y, F92G, S93N, T94A, F96L, L104V
notes: scFv
B3: Polypeptide No. 91 (scFv, V domains shown)
VH: QVQLVQSGAEVKKPGASVKVSCKASGGTFSSYAISWVRQAPGQGLEWMGWMNPNSGNTGYAQKFQGRVTMTRDTSTSTVYMELSSLRSEDTAVYYCAREDYYDSSGNFDYWGQGTLVTVSS
VL: DIQMTQSPSSLSASVGDRVTITCQASHDINIHLNWYQQKPGKAPKLLIYDASNLETGVPSRFSGSGSGTDFTLTISSLQPEDFATYYCQQAYSLPWTFGQGTKVEIKR
notes: scFv
B4: Polypeptide No. 100 (scFv, V domains shown)
VH: QVQLVQSGAEVKKPGASVKVSCKASGATRSWMHWVRQAPGQGLEWMGIINPSGDSTSYAQKFQGRVTMTRDTSTSTVYMELSSLRSEDTAVYYCAKEPYSSSPYYFDYWGQGTLVTVSS
VL: B1 VL with G28S, N31S, Y32W, S50G, N53S, F92Y, S93T, F96I, K103R
notes: scFv
B5: Polypeptide No. 108 (scFv, V domains shown)
VH: QVQLVQSGAEVKKPGASVKVSCKASGYTFTNYDINWVRQAPGQGLEWMGWMNPNSGNTGLVEKFQGRVTMTRDTSTSTVYMELSSLRSEDTAVYYCARGWGHGYGDYKFDYWGQGTLVTVSS
VL: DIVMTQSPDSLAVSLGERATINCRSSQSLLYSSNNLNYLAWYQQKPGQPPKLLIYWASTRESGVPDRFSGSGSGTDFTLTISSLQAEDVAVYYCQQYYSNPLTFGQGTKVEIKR
notes: scFv
B6: Polypeptide No. 191 (scFv, V domains shown)
VH: B3 VH
VL: B3 VL
notes: scFv
B7: Polypeptide No. 192 (scFv, V domains shown)
VH: B1 VH
VL: B1 VL
notes: scFv
B8: Polypeptide No. 193 (scFv, V domains shown)
VH: B2 VH
VL: B1 VL with G28S, S30Y, A34N, S50A, S91Y, F92G, S93N, T94A, F96L, L104V
notes: scFv
B9: Polypeptide No. 144 (scFv, V domains shown)
VH: QVQLVQSGAEVKKPGASVKVSCKASGYTFTAYYMHWVRQAPGQGLEWMGIIDPSGGSTSYAQQFQGRVTMTRDTSTSTVYMELSSLRSEDTAVYYCARGDYGDYHTLWGQGTLVTVSS
VL: B1 VL with N31S, S50D, N53S, F92Y, F96I, Q100P, L104V, E105D
notes: scFv
B10: Polypeptide No. 145 (scFv, V domains shown)
VH: QVQLVQSGAEVKKPGASVKVSCKASGGTFSTSYMHWVRQAPGQGLEWMGWIHPDDGNTDYAPKFQGRVTMTRDTSTSTVYMELSSLRSEDTAVYYCARDLGDYDTFDIWGQGTMVTVSS
VL: B1 VL with A25V, N31S, A34N, S50D, S56A, F92Y, F96P, L104V
notes: scFv
B11: Polypeptide No. 210 (scFv, V domains shown)
VH: QVQLVQSGAEVKKPGSSVKVSCKASGYTLTELSMHWVRQAPGQGLEWMGGIIPISGTTKYAQKFQGRVTITADESTSTAYMELSSLRSEDTAVYYCARASPRYYMDVWGKGTTVTVSS
VL: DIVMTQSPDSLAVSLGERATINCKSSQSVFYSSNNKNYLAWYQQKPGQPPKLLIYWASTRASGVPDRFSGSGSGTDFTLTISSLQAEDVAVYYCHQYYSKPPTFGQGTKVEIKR
notes: scFv
B12: Polypeptide No. 224 (scFv, V domains shown)
VH: QVQLVQSGAEVKKPGSSVKVSCKASGYTFTGYYMHWVRQAPGQGLEWMGVINPIYGTANYALKFQGRVTITADESTSTAYMELSSLRSEDTAVYYCAKAISSGWSNDAFDIWGQGTMVTVSS
VL: EIVMTQSPATLSVSPGERATLSCRASQSVSSDFLAWYQQKPGQAPRLLIYDTSSRASGIPARFSGSGSGTEFTLTISSLQSEDFAVYYCQQYAGPPTFGQGTRLEIKR
notes: scFv
B13: Polypeptide No. 226 (scFv, V domains shown)
VH: QVQLVQSGAEVKKPGASVKVSCKASGYTFTGYYMHWVRQAPGQGLEWMGIIDPSGGSTSYAQKFQGRVTMTRDTSTSTVYMELSSLRSEDTAVYYCARDRSLLWSGVGGMDVWGQGTTVTVSS
VL: B1 VL with S50G, F92Y, S93G, F96Y
notes: scFv
B14: Polypeptide No. 245 (scFv, V domains shown)
VH: QVQLVQSGAEVKKPGSSVKVSCKASGYTFTGFYIHWVRQAPGQGLEWMGGVIPFFSRTIYAQKFQGRVTITADESTSTAYMELSSLRSEDTAVYYCAYGANGHLYGMDAWGQGTTVTVSS
VL: EIVMTQSPATLSVSPGERATLSCRASQSVSSSYLAWYQQKPGQAPRLLIYGASTRATGIPARFSGSGSGTEFTLTISSLQSEDFAVYYCQQYSSSPLTFGQGTKVEIKR
notes: scFv
B15: Polypeptide No. 250 (scFv, V domains shown)
VH: QVQLVQSGAEVKKPGSSVKVSCKASGYTLTSFAMHWVRQAPGQGLEWMGRIIPMSGTANYAQKFQGRVTITADESTSTAYMELSSLRSEDTAVYYCASTSPDQYYYGMDVWGQGTTVTVSS
VL: B14 VL with S30G, Y33S, S93G, L97Y
notes: scFv
B16: Polypeptide No. 263 (scFv, V domains shown)
VH: QVQLVQSGAEVKKPGSSVKVSCKASGGTFSSYAISWVRQAPGQGLEWMGGIIPIVGVANYAQKLQGRVTITADESTSTAYMELSSLRSEDTAVYYCAKDIGGYPSDAFDIWGQGTTVTVSS
VL: B14 VL with G51D, A52V, S93G, L97I
notes: scFv
B17: Polypeptide No. 268 (scFv, V domains shown)
VH: QVQLVQSGAEVKKPGSSVKVSCKASGGTFSTYALSWVRQAPGQGLEWMGGVIPVFGTTDYAHKFQGRVTITADESTSTAYMELSSLRSEDTAVYYCASMIIFGAGGWDAYYFQEWGQGTLVTVSS
VL: B14 VL with S30N, S31N, S32N, Y33Q, G51D, A52T, T54S, S93D, S94T, L97Y
notes: scFv
B18: Polypeptide No. 281 (scFv, V domains shown)
VH: QVQLVQSGAEVKKPGASVKVSCKASGYTFNSYGISWVRQAPGQGLEWMGIINPTGGSTTYAQKFQGRVTMTRDTSTSTVYMELSSLRSEDTAVYYCAKDPFVMDVWGQGTTVTVSS
VL: B14 VL with G51D, T54A, T57A, S93Y, S95T, L97Y, V105L
notes: scFv
B19: Polypeptide No. 282 (scFv, V domains shown)
VH: QVQLVQSGAEVKKPGASVKVSCKASGGTFSSYAISWVRQAPGQGLEWMGWMNPNSGDTGYAQKFQGRVTMTRDTSTSTVYMELSSLRSEDTAVYYCARDFEGGGWFDPWGQGTLVTVSS
VL: EIVMTQSPATLSVSPGERATLSCRASRSISDYLAWYQQKPGQAPRLLIYDASSRATGIPARFSGSGSGTEFTLTISSLQSEDFAVYYCQQYYTTPLTFGQGTKVEIKR
notes: scFv
B20: Polypeptide No. 286 (scFv, V domains shown)
VH: QVQLVQSGAEVKKPGASVKVSCKASGYTFTSYGISWVRQAPGQGLEWMGWISPNSGVTNYAQKFQGRVTMTRDTSTSTVYMELSSLRSEDTAVYYCVSDDYGAFDYWGQGTLVTVSS
VL: B14 VL with G51D, A52V, T57S, S93N, S94N, S95W, L97Y, V105L
notes: scFv

Experiments:
[1] = target: T3, huCD33-G69 stably expressed on Jurkat cells (human, UniProt P20138 18-364); assay: FACS on cells;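 also: fixed Jurkat lines probed with myc-tagged scFv periplasmic extracts, anti-myc PE flow cytometry, PE MFI fold binned − <2, + 2–10, ++ 10–30, +++ >30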
T3 construct: whole, on cells; >200,000 receptors per cell; also called CD33 Mutant; CD33 R69G
Experimental: (§1) Jurkat cells were engineered to stably express either the huCD33-R69 or huCD33-G69 variant at >200,000 receptors per cell. Parental, huCD33-R69, and huCD33-G69 Jurkat cell lines were stained with differing levels of CellTrace Violet Cell Proliferation Kit (ThermoFisher, cat. #C34557) to barcode each cell line. Barcoded Jurkat cell lines were fixed with paraformaldehyde and incubated with myc-labeled scFv periplasmic extracts and a secondary anti-myc PE-conjugated monoclonal antibody. Appropriate positive and negative controls were used. Stained cells were analyzed by flow cytometry (CytoFLEX, Beckman Coulter, Inc.) and binding was assessed by change in PE mean fluorescence intensity (MFI) of the barcoded cell populations.
(§2) Data is disclosed below in Table 16c, reporting FACS fold change over parental as (−), indicating <2 fold; (+), indicating 2-10 fold; (++), indicating 10-30 fold; and (+++), indicating >30 fold.

[2] = target: T4, huCD33-R69 stably expressed on Jurkat cells (human, UniProt P20138 18-364); assay: FACS on cells;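 also: fixed Jurkat lines probed with myc-tagged scFv periplasmic extracts, anti-myc PE flow cytometry, PE MFI fold binned − <2, + 2–10, ++ 10–30, +++ >30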
T4 construct: whole, on cells; >200,000 receptors per cell; also called CD33 WT; CD33^ARG69
Experimental: as §1, §2

huCLL1-K244-Avi-Tev-His = target: T1, huCLL1-K244-Avi-Tev-His; assay: BLI
huCLL1-Q244-Avi-Tev-His = target: T2, huCLL1-Q244-Avi-Tev-His; assay: BLI
[3] = target: T5, huFLT3-M227 stably expressed on Ramos cells (human, UniProt P36888 27-993); assay: FACS on cells
T5 construct: whole, on cells; also called FLT3 Mutant
T5 sequence (P36888 27-993 T227M): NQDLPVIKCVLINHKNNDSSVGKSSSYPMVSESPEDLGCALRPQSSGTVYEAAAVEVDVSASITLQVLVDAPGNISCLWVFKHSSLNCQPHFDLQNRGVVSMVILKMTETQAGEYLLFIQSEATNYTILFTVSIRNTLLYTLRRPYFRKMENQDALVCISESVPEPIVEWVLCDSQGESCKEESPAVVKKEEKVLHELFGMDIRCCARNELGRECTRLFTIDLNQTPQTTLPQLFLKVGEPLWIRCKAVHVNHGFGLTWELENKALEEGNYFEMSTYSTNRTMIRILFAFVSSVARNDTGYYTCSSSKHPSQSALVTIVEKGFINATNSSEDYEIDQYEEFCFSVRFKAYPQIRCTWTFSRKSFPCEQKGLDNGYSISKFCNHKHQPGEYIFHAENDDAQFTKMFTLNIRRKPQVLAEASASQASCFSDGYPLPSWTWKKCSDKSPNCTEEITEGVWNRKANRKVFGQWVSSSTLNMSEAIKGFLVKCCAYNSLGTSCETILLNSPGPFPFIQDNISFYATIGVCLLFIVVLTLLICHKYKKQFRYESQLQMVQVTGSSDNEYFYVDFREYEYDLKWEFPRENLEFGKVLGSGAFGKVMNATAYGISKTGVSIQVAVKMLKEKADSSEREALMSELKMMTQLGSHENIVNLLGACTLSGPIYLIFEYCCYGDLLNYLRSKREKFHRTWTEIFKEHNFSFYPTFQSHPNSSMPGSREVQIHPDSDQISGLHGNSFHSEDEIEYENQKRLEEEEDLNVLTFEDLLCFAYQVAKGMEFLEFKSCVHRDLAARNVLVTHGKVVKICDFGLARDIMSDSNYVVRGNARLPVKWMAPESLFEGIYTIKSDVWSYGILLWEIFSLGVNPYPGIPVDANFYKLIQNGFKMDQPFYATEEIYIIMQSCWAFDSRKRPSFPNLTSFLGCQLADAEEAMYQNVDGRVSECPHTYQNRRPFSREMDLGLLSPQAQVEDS
Experimental: For FLT3, Ramos cells were engineered to stably express either the huFLT3-T227 or huFLT3-M227 variant at >200,000 receptors per cell. Parental, huFLT3-T227, and huFLT3-M227 Ramos cell lines were stained with differing levels of CellTrace Violet Cell Proliferation Kit (ThermoFisher, cat. #C34557) to barcode each cell line. Barcoded Ramos cell lines were fixed with paraformaldehyde and incubated with myc-labeled scFv periplasmic extracts and a secondary anti-myc PE-conjugated monoclonal antibody. Appropriate positive and negative controls were used. Stained cells were analyzed by flow cytometry (CytoFLEX, Beckman Coulter, Inc.) and binding was assessed by change in PE mean fluorescence intensity (MFI) of the barcoded cell populations.

T3 sequence (P20138 18-364 R69G): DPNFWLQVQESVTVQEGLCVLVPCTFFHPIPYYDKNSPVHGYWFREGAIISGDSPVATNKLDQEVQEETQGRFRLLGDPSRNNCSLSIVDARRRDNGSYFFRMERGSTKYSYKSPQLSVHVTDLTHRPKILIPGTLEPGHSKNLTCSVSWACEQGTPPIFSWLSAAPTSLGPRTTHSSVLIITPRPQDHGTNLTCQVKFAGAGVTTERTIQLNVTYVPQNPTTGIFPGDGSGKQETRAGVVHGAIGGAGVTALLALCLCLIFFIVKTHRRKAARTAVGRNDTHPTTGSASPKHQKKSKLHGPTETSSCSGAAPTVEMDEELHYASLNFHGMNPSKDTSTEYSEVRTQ
T4 sequence (P20138 18-364): as the sequence (P20138 18-364 R69G) above, with G52R counted along it

Binder	FACS geometric mean fold change over Jurkat parental [1] [fold]	FACS geometric mean fold change over Jurkat parental [2] [fold]	FACS geometric mean fold change over Jurkat parental [3] [fold]	other results
B1	10 to 30	10 to 30	–	–
B2	> 30	> 30	–	–
B3	10 to 30	> 30	–	–
B4	10 to 30	10 to 30	–	–
B5	10 to 30	10 to 30	–	–
B6	10 to 30	> 30	–	–
B7	10 to 30	10 to 30	–	–
B8	> 30	> 30	–	–
B9	–	–	–	binding result (huCLL1-K244-Avi-Tev-His): binds; binding result (huCLL1-Q244-Avi-Tev-His): binds
B10	–	–	–	binding result (huCLL1-K244-Avi-Tev-His): binds; binding result (huCLL1-Q244-Avi-Tev-His): binds
B11	–	–	2 to 10	–
B12	–	–	2 to 10	–
B13	–	–	2 to 10	–
B14	–	–	2 to 10	–
B15	–	–	2 to 10	–
B16	–	–	2 to 10	–
B17	–	–	2 to 10	–
B18	–	–	2 to 10	–
B19	–	–	2 to 10	–
B20	–	–	2 to 10	–
